Test results from article PMC2756588.

T1: Myo5, Q04439
T1 sequence (Q04439 1072-1160, looked up): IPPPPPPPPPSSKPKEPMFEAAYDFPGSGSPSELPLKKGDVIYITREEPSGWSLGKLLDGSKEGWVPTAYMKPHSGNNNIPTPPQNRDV

T2: Bud14, P27637
T2 sequence (P27637 247-328, looked up): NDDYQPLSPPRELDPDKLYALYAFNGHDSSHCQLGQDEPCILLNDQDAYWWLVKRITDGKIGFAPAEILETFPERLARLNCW

T3: Hof1, Q05080
T3 sequence (Q05080 590-669, looked up): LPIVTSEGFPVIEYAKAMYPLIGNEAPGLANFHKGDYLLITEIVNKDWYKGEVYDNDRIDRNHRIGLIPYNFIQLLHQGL

T4: Lsb3, P43603
T4 sequence (P43603 385-451, looked up): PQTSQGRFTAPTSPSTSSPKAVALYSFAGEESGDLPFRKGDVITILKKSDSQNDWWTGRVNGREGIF

T5: Pex13, P80667
T5 sequence (P80667 295-386, looked up): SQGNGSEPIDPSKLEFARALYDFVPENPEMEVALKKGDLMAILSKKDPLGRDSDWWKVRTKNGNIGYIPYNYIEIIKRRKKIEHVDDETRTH

T6: Cdc25, P04821
T6 sequence (P04821 50-136, looked up): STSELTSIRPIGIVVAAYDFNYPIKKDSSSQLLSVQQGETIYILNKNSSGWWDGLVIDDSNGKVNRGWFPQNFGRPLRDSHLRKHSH

T7: Hse1, P38753
T7 sequence (P38753 208-285, looked up): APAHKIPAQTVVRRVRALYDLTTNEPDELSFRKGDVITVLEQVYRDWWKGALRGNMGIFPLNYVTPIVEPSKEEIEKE

T8: Abp1, P15891
T8 sequence (P15891 535-592, looked up): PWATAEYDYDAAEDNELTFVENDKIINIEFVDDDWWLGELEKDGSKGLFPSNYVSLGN

T9: Boi2, P39969
T9 sequence (P39969 32-116, looked up): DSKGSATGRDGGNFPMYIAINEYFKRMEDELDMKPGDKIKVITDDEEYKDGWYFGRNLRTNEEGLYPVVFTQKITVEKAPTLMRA

T10: Bzz1-2, P38822
T10 sequence (P38822 568-633, looked up): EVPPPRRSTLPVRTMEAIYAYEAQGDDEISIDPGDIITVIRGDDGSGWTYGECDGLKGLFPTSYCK

T11: Pin3, Q06449
T11 sequence (Q06449 53-122, looked up): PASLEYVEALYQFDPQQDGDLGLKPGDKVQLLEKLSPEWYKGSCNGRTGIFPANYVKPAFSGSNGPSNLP

T12: Sla1-3, P32790
T12 sequence (P32790 344-424, looked up): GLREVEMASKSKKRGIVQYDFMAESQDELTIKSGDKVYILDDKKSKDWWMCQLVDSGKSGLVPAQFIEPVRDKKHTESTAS

T13: Lsb4, P32793
T13 sequence (P32793 402-468, looked up): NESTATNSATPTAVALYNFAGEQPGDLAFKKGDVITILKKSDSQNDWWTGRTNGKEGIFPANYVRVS

T14: Boi1, P38041
T14 sequence (P38041 1-86, looked up): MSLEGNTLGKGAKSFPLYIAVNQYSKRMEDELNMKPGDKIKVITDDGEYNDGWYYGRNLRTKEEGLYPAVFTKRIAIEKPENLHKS

T15: Cyk3, Q07533
T15 sequence (Q07533 1-83, looked up): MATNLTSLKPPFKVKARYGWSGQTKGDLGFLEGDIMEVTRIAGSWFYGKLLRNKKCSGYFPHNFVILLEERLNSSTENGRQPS

T16: Nbp2, Q12163
T16 sequence (Q12163 103-180, looked up): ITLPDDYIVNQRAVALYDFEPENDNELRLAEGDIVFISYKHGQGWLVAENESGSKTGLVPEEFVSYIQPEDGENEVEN

T17: Bzz1-1, P38822
T17 sequence (P38822 478-572, looked up): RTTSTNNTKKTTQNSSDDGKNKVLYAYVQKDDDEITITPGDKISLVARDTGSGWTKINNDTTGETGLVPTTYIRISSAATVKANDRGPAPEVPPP

T18: Sla1-2, P32790
T18 sequence (P32790 60-140, looked up): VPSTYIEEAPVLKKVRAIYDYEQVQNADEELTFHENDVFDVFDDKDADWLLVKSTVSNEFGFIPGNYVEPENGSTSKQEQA

T19: Lsb1, P53281
T19 sequence (P53281 45-122, looked up): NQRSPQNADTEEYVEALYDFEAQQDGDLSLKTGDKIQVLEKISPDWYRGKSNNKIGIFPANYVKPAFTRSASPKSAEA

T20: Fus1, P11710
T20 sequence (P11710 432-512, looked up): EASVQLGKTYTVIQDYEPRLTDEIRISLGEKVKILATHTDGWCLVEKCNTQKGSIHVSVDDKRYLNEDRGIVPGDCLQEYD

T21: Bbc1, P47068
T21 sequence (P47068 1-78, looked up): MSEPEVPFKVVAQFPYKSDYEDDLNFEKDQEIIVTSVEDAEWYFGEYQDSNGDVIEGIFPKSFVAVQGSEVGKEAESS

B1: unnamed (peptide)
chain: PPLPRAPPVPPATFE
B2: unnamed (peptide)
chain: VPPVPLPFGIPPFPM
B3: unnamed (peptide)
chain: PSPSSSPPPIPKTAN

Each binder was assayed against T1, Myo5, Q04439 (assay: SPOT array). Settings: median of control spots 471.

| SPOT intensity | Binder |
| --- | --- |
| 137 | B1 |
| 207 | B2 |
| 300 | B3 |

Each binder was assayed against T2, Bud14, P27637 (assay: SPOT array). Settings: median of control spots 956.

| SPOT intensity | Binder |
| --- | --- |
| 0 | B1 |
| 2 | B2 |
| 0 | B3 |

These binders were tested against T3, Hof1, Q05080 (assay: SPOT array). Settings: median of control spots 4086.

| SPOT intensity | Binder |
| --- | --- |
| 183 | B1 |
| 84 | B2 |
| 0 | B3 |

What follows are binders tested against T4, Lsb3, P43603 (assay: SPOT array). Settings: median of control spots 406.

| SPOT intensity | Binder |
| --- | --- |
| 0 | B1 |
| 4 | B2 |
| 0 | B3 |

What follows are binders tested against T5, Pex13, P80667 (assay: SPOT array). Settings: median of control spots 1341.

| SPOT intensity | Binder |
| --- | --- |
| 14 | B1 |
| 129 | B2 |
| 0 | B3 |

Each binder was assayed against GST (assay: SPOT array). Settings: median of control spots 978.

| SPOT intensity | Binder |
| --- | --- |
| 0 | B1 |
| 0 | B2 |
| 1 | B3 |

These binders were tested against T6, Cdc25, P04821 (assay: SPOT array). Settings: median of control spots 969.

| SPOT intensity | Binder |
| --- | --- |
| 1 | B1 |
| 8 | B2 |
| 1 | B3 |

The binders below were run against T7, Hse1, P38753 (assay: SPOT array). Settings: median of control spots 1727.

| SPOT intensity | Binder |
| --- | --- |
| 0 | B1 |
| 0 | B2 |
| 0 | B3 |

These binders were tested against T8, Abp1, P15891 (assay: SPOT array). Settings: median of control spots 935.

| SPOT intensity | Binder |
| --- | --- |
| 27 | B1 |
| 25 | B2 |
| 0 | B3 |

What follows are binders tested against T9, Boi2, P39969 (assay: SPOT array). Settings: median of control spots 1161.

| SPOT intensity | Binder |
| --- | --- |
| 0 | B1 |
| 1 | B2 |
| 1 | B3 |

Each binder was assayed against T10, Bzz1-2, P38822 (assay: SPOT array). Settings: median of control spots 4538.

| SPOT intensity | Binder |
| --- | --- |
| 4 | B1 |
| 0 | B2 |
| 3 | B3 |

Each binder was assayed against T11, Pin3, Q06449 (assay: SPOT array). Settings: median of control spots 2171.

| SPOT intensity | Binder |
| --- | --- |
| 0 | B1 |
| 63 | B2 |
| 0 | B3 |

What follows are binders tested against T12, Sla1-3, P32790 (assay: SPOT array). Settings: median of control spots 5475.

| SPOT intensity | Binder |
| --- | --- |
| 1 | B1 |
| 0 | B2 |
| 0 | B3 |

The binders below were run against Sho1, P40073 (assay: SPOT array). Settings: median of control spots 1148.
Sho1, P40073, sequence (P40073 287-367): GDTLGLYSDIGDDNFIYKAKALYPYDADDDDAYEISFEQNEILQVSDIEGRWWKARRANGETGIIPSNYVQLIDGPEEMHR

| SPOT intensity | Binder |
| --- | --- |
| 9 | B1 |
| 6 | B2 |
| 0 | B3 |

The binders below were run against Myo3, P36006 (assay: SPOT array). Settings: median of control spots 468.

| SPOT intensity | Binder |
| --- | --- |
| 269 | B1 |
| 341 | B2 |
| 413 | B3 |

Each binder was assayed against Rvs167, P39743 (assay: SPOT array). Settings: median of control spots 2707.
Rvs167, P39743, sequence (P39743 419-482): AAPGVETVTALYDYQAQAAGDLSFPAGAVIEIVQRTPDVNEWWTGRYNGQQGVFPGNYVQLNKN

| SPOT intensity | Binder |
| --- | --- |
| 0 | B1 |
| 0 | B2 |
| 0 | B3 |

These binders were tested against T13, Lsb4, P32793 (assay: SPOT array). Settings: median of control spots 397.

| SPOT intensity | Binder |
| --- | --- |
| 0 | B1 |
| 16 | B2 |
| 0 | B3 |

Each binder was assayed against Bem1-2, P29366 (assay: SPOT array). Settings: median of control spots 4347.
Bem1-2, P29366, sequence (P29366 139-227): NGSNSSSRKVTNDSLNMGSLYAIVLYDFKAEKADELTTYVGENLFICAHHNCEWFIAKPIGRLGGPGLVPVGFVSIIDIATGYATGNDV

| SPOT intensity | Binder |
| --- | --- |
| 59 | B1 |
| 2 | B2 |
| 0 | B3 |

The binders below were run against T14, Boi1, P38041 (assay: SPOT array). Settings: median of control spots 1162.

| SPOT intensity | Binder |
| --- | --- |
| 1 | B1 |
| 0 | B2 |
| 1 | B3 |

Each binder was assayed against Bem1-1, P29366 (assay: SPOT array). Settings: median of control spots 4282.
Bem1-1, P29366, sequence (P29366 55-141): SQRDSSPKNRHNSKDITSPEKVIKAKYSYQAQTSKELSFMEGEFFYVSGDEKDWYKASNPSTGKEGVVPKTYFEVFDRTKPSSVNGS

| SPOT intensity | Binder |
| --- | --- |
| 2 | B1 |
| 0 | B2 |
| 1 | B3 |

The binders below were run against T15, Cyk3, Q07533 (assay: SPOT array). Settings: median of control spots 1451.

| SPOT intensity | Binder |
| --- | --- |
| 0 | B1 |
| 2 | B2 |
| 0 | B3 |

Each binder was assayed against T16, Nbp2, Q12163 (assay: SPOT array). Settings: median of control spots 357.

| SPOT intensity | Binder |
| --- | --- |
| 2 | B1 |
| 1 | B2 |
| 0 | B3 |

The binders below were run against T17, Bzz1-1, P38822 (assay: SPOT array). Settings: median of control spots 4446.

| SPOT intensity | Binder |
| --- | --- |
| 2 | B1 |
| 2 | B2 |
| 1 | B3 |

What follows are binders tested against T18, Sla1-2, P32790 (assay: SPOT array). Settings: median of control spots 712.

| SPOT intensity | Binder |
| --- | --- |
| 1 | B1 |
| 1 | B2 |
| 0 | B3 |

What follows are binders tested against T19, Lsb1, P53281 (assay: SPOT array). Settings: median of control spots 388.

| SPOT intensity | Binder |
| --- | --- |
| 7 | B1 |
| 6 | B2 |
| 0 | B3 |

Each binder was assayed against T20, Fus1, P11710 (assay: SPOT array). Settings: median of control spots 1200.

| SPOT intensity | Binder |
| --- | --- |
| 0 | B1 |
| 0 | B2 |
| 0 | B3 |

Each binder was assayed against T21, Bbc1, P47068 (assay: SPOT array). Settings: median of control spots 796.

| SPOT intensity | Binder |
| --- | --- |
| 3 | B1 |
| 3 | B2 |
| 0 | B3 |
